Laboratory results reported in paper PMC4568377.
Several values for one entry are separate records, joined by “and”; a condition that tells them apart may be missing. Identical values can stand only once.

Tests used:
AKAP7γ-EGFP (human) = test: photon counting histogram analysis (fluorescence fluctuation); AKAP7γ-EGFP in live HEK-293 cells, cytoplasm; two-component global fit with brightness constrained to monomeric and tandem EGFP; apparent Kd, monomer to dimer; 75 measurements from 5 cells
[1] = target: His/S-tagged AKAP7γ (human); test: SPR; Biacore T100; AKAP7γ or AKAP7α amine-coupled to a CM5 chip (150 RU) in separate flow chambers; analytes AKAP7γ or AKAP7α 12.5–200 nM in HBS (10 mM Hepes pH 7.4, 150 mM NaCl, 0.005% Surfactant P20), 30 μL/min, 300 s; heterogeneous analyte model

Kd (AKAP7γ-EGFP (human))	percent of the particles detected that are dimer (AKAP7γ-EGFP (human)) [%]	percent of the protein in the dimeric form (AKAP7γ-EGFP (human)) [%]	stoichiometry N (AKAP7γ-EGFP (human))	KD, site 1 (heterogeneous analyte model) [1] [nM]	KD, site 2 (heterogeneous analyte model) [1] [nM]	Substance
78.8 to 126 nM and 98.4 nM	20	28.7	2			AKAP7γ-EGFP (natural protein)
				0.537	79.7	His/S-tagged AKAP7γ (natural protein)
